Assay results as given in publication PMC7468457.

Experiments:
[1] = biological target: AT1R-Rluc (AngII type 1 receptor fused to Renilla luciferase) (human) (UniProt P30556)
[2] = biological target: AT1R-Rluc (AngII type 1 receptor fused to Renilla luciferase) (human) (UniProt P30556); remark: listed apart in the source
[3] = biological target: AT1R-Rluc (AngII type 1 receptor fused to Renilla luciferase) (human) (UniProt P30556); remark: listed apart in the source
[4] = biological target: AT1R-Rluc (AngII type 1 receptor fused to Renilla luciferase) (human) (UniProt P30556); remark: listed apart in the source
[5] = biological target: AT1R-Rluc (AngII type 1 receptor fused to Renilla luciferase) (human) (UniProt P30556); remark: listed apart in the source
[6] = biological target: AT1R-Rluc (AngII type 1 receptor fused to Renilla luciferase) (human) (UniProt P30556); remark: listed apart in the source

Sequence of UniProt P30556 (P30556 whole entry, the tested form may be a part): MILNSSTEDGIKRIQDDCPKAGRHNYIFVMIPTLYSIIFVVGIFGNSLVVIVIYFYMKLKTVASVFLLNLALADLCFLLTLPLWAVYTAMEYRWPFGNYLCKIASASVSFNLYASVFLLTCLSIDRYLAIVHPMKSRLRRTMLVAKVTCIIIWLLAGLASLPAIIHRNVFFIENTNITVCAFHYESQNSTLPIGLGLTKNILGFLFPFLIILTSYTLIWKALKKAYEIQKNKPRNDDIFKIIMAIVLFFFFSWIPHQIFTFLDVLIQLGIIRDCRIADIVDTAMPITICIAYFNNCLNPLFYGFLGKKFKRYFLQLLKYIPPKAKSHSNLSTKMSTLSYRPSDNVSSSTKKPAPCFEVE

B1: PAR1 (untagged protease-activated receptor 1) (receptor)
chain: SFLLRNPNDKYEPFWEDEEKNESGLTEYRLVSINKSSPLQKQLPAFISEDASGYLTSSWLTLFVPSVYTGVFVVSLPLNIMAIVVFILKMKVKKPAVVYMLHLATADVLFVSVLPFKISYYFSGSDWQFGSELCRFVTAAFYCNMYASILLMTVISIDRFLAVVYPMQSLSWRTLGRASFTCLAIWALAIAGVVPLLLKEQTIQVPGLNITTCHDVLNETLLEGYYAYYFSAFSAVFFFVPLIISTVCYVSIIRCLSSSAVANRSKKSRALFLSAAVFCIFIICFGPTNVLLIAHYSFLSHTSTTEAAYFAYLLCVCVSSISCCIDPLIYYYASSECQRYVYSILCCKESSDPSSYNSSGQLMASKMDTCSSNLNNSIYKKLLT
[1]
  BRET increase between AT1R-Rluc and Venus-Gαq by thrombin 1 U/ml with PAR1 overexpression, dose-response to AngII (Figure 1D) (% of AngII response): 70 to 75
  BRET increase between AT1R-Rluc and yPET-β-arrestin 2 by thrombin 1 U/ml with PAR1 overexpression (Figure 1F) (% of AngII response): 25
[2]
  Emax of thrombin dose-response, BRET between AT1R-Rluc and Venus-Gαq, PAR1 overexpressed, thrombin alone; 10 nM AngII alone taken as 100%: 211%
  Emax of thrombin dose-response, BRET between AT1R-Rluc and Venus-Gαq, PAR1 overexpressed, with 10 nM AngII: 342%
  Emax of thrombin dose-response, BRET between AT1R-Rluc and yPET-β-arrestin 2, PAR1 overexpressed, thrombin alone; 10 nM AngII alone taken as 100%: 102%
  Emax of thrombin dose-response, BRET between AT1R-Rluc and yPET-β-arrestin 2, PAR1 overexpressed, with 10 nM AngII: 299%
[3]
  real-time BRET between AT1R-Rluc and Venus-Gαq, PAR1 overexpressed, AngII 10 nM and thrombin 1 U/ml together (% of AngII response): 207
  real-time BRET between AT1R-Rluc and Venus-Gαq, PAR1 overexpressed, thrombin 1 U/ml alone (% of AngII response): 79
  real-time BRET between AT1R-Rluc and yPET-β-arrestin 2, PAR1 overexpressed, AngII 10 nM and thrombin 1 U/ml together (% of AngII response): 218
  real-time BRET between AT1R-Rluc and yPET-β-arrestin 2, PAR1 overexpressed, thrombin 1 U/ml alone (% of AngII response): 44
[4]
  sequential real-time BRET between AT1R-Rluc and yPET-β-arrestin 2, PAR1 overexpressed, vehicle then thrombin 1 U/ml (% of AngII response): 50
[5]
  IP1 production in HEK293 cells coexpressing AT1R-Rluc and PAR1, AngII 10 nM and thrombin 1 U/ml together: 160%
[6]
  AT1R endosomal trafficking (BRET between AT1R-Rluc and Venus-Rab5), PAR1 overexpressed and co-activated: 45%
  AT1R endosomal trafficking (BRET between AT1R-Rluc and Venus-Rab7), PAR1 overexpressed and co-activated: 41%
